Measurements published in patent US5668264, “High affinity PDGF nucleic acid ligands” (NeXstar Pharmaceuticals, Inc.).

B1: ssDNA ligand 26 (ssDNA)
DNA: ATCCGCCTGATTAGCGATACTAGAGGGGAAGTAGGCTGCCTGACTCGAGAGAGTCCTCCCGACTTGAGCAAAATCACCTGCAGGGG
B2: ssDNA ligand 38 (ssDNA)
DNA: ATCCGCCTGATTAGCGATACTAAAGTCGTGCAGGGTCCCCTGGAAGCATCTCCGATCCCAGACTTGAGCAAAATCACCTGCAGGGG
B3: ssDNA ligand 36 (ssDNA)
DNA: ATCCGCCTGATTAGCGATACTCCACAGGCTACGGCACGTAGAGCATCACCATGATCCTGTGACTTGAGCAAAATCACCTGCAGGGG
B4: ssDNA ligand 40 (ssDNA)
DNA: ATCCGCCTGATTAGCGATACTAGTGGAACAGGGCACGGAGAGTCAAACTTTGGTTTCCCCCACTTGAGCAAAATCACCTGCAGGGG
B5: ssDNA ligand 14 (ssDNA)
DNA: ATCCGCCTGATTAGCGATACTAGGCTTGACAAAGGGCACCATGGCTTAGTGGTCCTAGTACTTGAGCAAAATCACCTGCAGGGG

Tests used:
[1] = molecular target: T1, PDGF AB (Homo sapiens, UniProt P04085;P01127 P04085:87-211,P01127:82-190); experiment: filter; biphasic, higher affinity component; settings: tags: R&D Systems 222-AB; chain copies: A/B chain heterodimer (inferred)
Procedure: (§1) 22: 1859), and the equilibrium dissociation constants were determined by nitrocellulose filter binding. […] […]-[…]-3') SEQ ID NO: 88, and 26t (5'-[…] T-3') SEQ ID NO: 89.
(§2) The binding data were analyzed according the formalism described in Jellinek et al., 1994: supra.

[2] = molecular target: PDGF BB (UniProt P01127 P01127:82-190); experiment: filter; biphasic, higher affinity component; settings: chain copies: BB homodimer (inferred)
Procedure: as §1, §2

[3] = molecular target: PDGF AA (UniProt P04085 P04085:87-211); experiment: filter; monophasic; settings: chain copies: AA homodimer (inferred)
Excerpt: […]-[…]-3') SEQ ID NO: 88, and 26t (5'-[…] T-3') SEQ ID NO: 89.

[4] = molecular target: T1, PDGF AB; experiment: filter; among seven highest affinity ligands; data not shown; settings: tags: R&D Systems 222-AB; chain copies: A/B chain heterodimer (inferred)

Chain of PDGF BB (P01127 82-190, one chain of several): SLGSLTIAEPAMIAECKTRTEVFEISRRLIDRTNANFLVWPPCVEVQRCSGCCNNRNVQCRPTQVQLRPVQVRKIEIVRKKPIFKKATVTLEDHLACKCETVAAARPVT
T1 sequence (P01127 82-190, chain 2 of 2, other chains not shown): as the sequence (P01127 82-190, one chain of several) above

Binder	Kd [1] [nM]	Kd [2] [nM]	Kd [3] [nM]	binding result [4]
CCACAGGCTACGGCACGTAGAGCATCACCATGATCCTGTGT (ssDNA, 3'-3' inverted T at 3' end) [36t]	0.082	0.054	72	–
TACTCAGGGCACTGCAAGCAATTGTGGTCCCAATGGGCTGAGTAT (ssDNA, 3'-3' inverted T at 3' end) [41t]	0.051	0.056	–	–
TGGGAGGGCGCGTTCTTCGTGGTTACTTTTAGTCCCGT (ssDNA, 3'-3' inverted T at 3' end (described for truncated ligands)) [20t-a]	0.082	0.09	–	–
B1	–	–	–	binds
B2	–	–	–	binds
B3	–	–	–	binds
B4	–	–	–	binds
B5	–	–	–	binds
